Data on 19 variants can be found in FireProtDB (doi:10.1093/jb/mvq079).

To fix the notation:
B1: Divalent-cation tolerance protein CutA, P69488 (parent)
chain: MLDEKSSNTASVVVLCTAPDEATAQDLAAKVLAEKLAACATLIPGATSLYYWEGKLEQEYEVQMILKTTVSHQQALLECLKSHHPYQTPELLVLPVTHGDTDYLSWLNASLR

The variants in the data set derive from B1. As to conditions: Escherichia coli (strain K12), structure 3X3U, whole UniProt chain shown; for ddG of mutation (higher = less stable) / denaturant midpoint (higher = more stable): pH 8, 37 °C, GdnHCl, CD, Tris-HCl, reversible: yes; for Tm / change of melting temperature, mutant - wild type (higher = more stable): pH 9, Thermal, DSC, glycine Buffer, transition: 2, reversible: no.

One may read the Tm as the temperature at which the thermal transition is half complete. In the case of Y86D, the “ddG of mutation (higher = less stable)” value was determined as 26.7 kJ/mol; the “denaturant midpoint (higher = more stable)” value (from here on “denaturant midpoint”) turned out to be 2.67 M; the Tm was 76.8 °C; the “change of melting temperature, mutant - wild type (higher = more stable)” value (from here on “change of melting temperature, mutant”) was -13.1 °C.

As for S11V E61T, the “denaturant midpoint” value stood at 3.48 M; the Tm turned out to be 112 °C; the “change of melting temperature, mutant” value amounted to 22.4 °C.

For S11V E61V, the “denaturant midpoint” value amounted to 3.8 M; the Tm amounted to 114 °C; the “change of melting temperature, mutant” value is 23.6 °C.

For S11V E61T Q73V, the “denaturant midpoint” value stood at 4.2 M; the Tm worked out at 114 °C; the “change of melting temperature, mutant” value was 23.7 °C.

With E61T, the “ddG of mutation (higher = less stable)” value was -13.2 kJ/mol; the “denaturant midpoint” value is 2.99 M; the Tm stood at 98.6 °C; the “change of melting temperature, mutant” value was 8.7 °C.

Turning to E61H, the Tm is 94.3 °C and the “change of melting temperature, mutant” value is 4.4 °C.

With E61V, the “ddG of mutation (higher = less stable)” value is -14.3 kJ/mol; the “denaturant midpoint” value is 3.29 M; the Tm is 103 °C; the “change of melting temperature, mutant” value worked out at 13.5 °C.

Consider E59K E61V, for which the “ddG of mutation (higher = less stable)” value is -22.9 kJ/mol; the “denaturant midpoint” value was 3.24 M; the Tm was determined as 104 °C; the “change of melting temperature, mutant” value came out at 14.4 °C.

In the case of S11I, the Tm was 103 °C and the “change of melting temperature, mutant” value came to 12.8 °C.

As to S11V, the “denaturant midpoint” value came to 3.31 M; the Tm is 105 °C; the “change of melting temperature, mutant” value was determined as 15.1 °C.

With S11A, the Tm worked out at 106 °C and the “change of melting temperature, mutant” value stood at 16.5 °C.

Take G45Q: the midpoint of thermal melting (Tm) worked out at 82.1 °C and the “change of melting temperature, mutant” value is -7.8 °C.

For the variant S11V E59K E61T, the “denaturant midpoint” value was 3.48 M.

On to Q73V, for which the “denaturant midpoint” value came to 3.4 M; the Tm came to 94 °C; the “change of melting temperature, mutant” value stood at 4.1 °C.

For Y60T, the Tm stood at 91.9 °C and the “change of melting temperature, mutant” value is 2 °C.

Turning to E59Q, the Tm was found to be 98.3 °C and the “change of melting temperature, mutant” value was found to be 8.4 °C.

As to E59K, the “ddG of mutation (higher = less stable)” value was -16.4 kJ/mol; the “denaturant midpoint” value was 3.01 M; the Tm was 104 °C; the “change of melting temperature, mutant” value amounted to 14.3 °C.

Turning to E59L, the “ddG of mutation (higher = less stable)” value was -12.1 kJ/mol; the “denaturant midpoint” value worked out at 2.96 M; the Tm came to 100 °C; the “change of melting temperature, mutant” value is 10.3 °C.

Consider S11V E61V Q73V, for which the “denaturant midpoint” value is 4.67 M.
